{"source": "patent US20220119464A1", "binders": {"B1": {"name": "L-form of EK1 (peptide)", "peptide": "SLDQINVTFLDLEYEMKKLEEAIKKLEESYIDLKEL", "modifications": "not checked"}}, "biological_target": "biotinylated L-form of SARS-CoV-2 HR1 (SARS-CoV-2)"}
{"binder": "B1", "values": [{"measurement": "Kd", "value": 23, "unit": "nM"}]}
